Laboratory results published in patent publication US20190359693A1.

Assays:
[1] = biological target: HA of H1N1 A/New Caledonia/20/1999 (influenza A virus); assay: cell-based or functional assay
[2] = biological target: HA of H3N2 A/Brisbane/10/2007 (influenza A virus); assay: cell-based or functional assay
[3] = biological target: HA of H3N2 A/HK/1/68-MA (influenza A virus); assay: cell-based or functional assay
[4] = biological target: HA of H1N1 A/Puerto Rico/8/34-MA (influenza A virus); assay: cell-based or functional assay
[5] = biological target: HA of H7N3 A/NIBRG/60 (A/mallard/NL/12/00) (influenza A virus); assay: cell-based or functional assay
[6] = biological target: HA of H5N1 A/Vietnam/1194/04 (influenza A virus); assay: cell-based or functional assay
[7] = biological target: HA of H1N1 A/Brisbane/59/07 (influenza A virus); assay: cell-based or functional assay
[8] = biological target: HA of H3N2 A/Brisbane/10/2007 (influenza A virus); assay: BLI steady state
[9] = biological target: HA of H7N3 A/NIBRG/60 (A/mallard/NL/12/00) (influenza A virus); assay: BLI steady state
[10] = biological target: HA of B/Brisbane/60/2008 (Victoria) (influenza B virus); assay: cell-based or functional assay
[11] = biological target: HA of B/Florida/04/2006 (Yamagata) (influenza B virus); assay: cell-based or functional assay
[12] = biological target: HA of B/Lee/40 (influenza B virus) (UniProt P03460); assay: cell-based or functional assay
[13] = biological target: HA of B/Harbin/7/94 (Yamagata) (influenza B virus); assay: cell-based or functional assay
[14] = biological target: HA of B/Malaysia/2506/04 (Victoria) (influenza B virus); assay: cell-based or functional assay
[15] = biological target: hemagglutinin (HA) of influenza virus H2N2 A/WF/HK/MPU3156/05 (influenza A virus); assay: cell-based or functional assay
[16] = biological target: hemagglutinin (HA) of influenza virus H7N9 A/Anhui/1/13 (influenza A virus); assay: cell-based or functional assay
[17] = biological target: hemagglutinin (HA) of influenza virus H7N3 A/NIBRG/60 (A/mallard/Netherlands/12/00) (influenza A virus); assay: cell-based or functional assay
[18] = biological target: hemagglutinin (HA) of influenza virus H5N1 A/Vietnam/1194/04 (influenza A virus); assay: cell-based or functional assay
[19] = biological target: hemagglutinin (HA) of influenza virus H3N2 A/Brisbane/10/07 (influenza A virus); assay: cell-based or functional assay
[20] = biological target: hemagglutinin (HA) of influenza virus H2N2 A/Guiyang/1/57 (influenza A virus); assay: cell-based or functional assay
[21] = biological target: hemagglutinin (HA) of influenza A/Brisbane/10/07 (H3N2) (influenza A virus A/Brisbane/10/07 (H3N2)); assay: cell-based or functional assay
[22] = biological target: hemagglutinin (HA) of influenza B/Brisbane/60/08 (Victoria lineage) (influenza B virus B/Brisbane/60/08); assay: cell-based or functional assay
[23] = biological target: hemagglutinin (HA) of influenza A/New Caledonia/20/99 (H1N1) (influenza A virus A/New Caledonia/20/99 (H1N1)); assay: cell-based or functional assay
[24] = biological target: hemagglutinin (HA) of influenza A/Vietnam/1194/04 (H5N1) (influenza A virus A/Vietnam/1194/04 (H5N1)); assay: cell-based or functional assay
[25] = biological target: hemagglutinin (HA) of influenza B/Harbin/7/94 (Yamagata lineage) (influenza B virus B/Harbin/7/94); assay: cell-based or functional assay

B1: SD1025 (VHH)
VHH: EVQLVESGGGLVQAGGSLRLSCAASGRTYAMAWFRQAPGKEREFVAHINALGTRTYYSDSVQGRFTISRDNAKNTEYLQMNSLKPEDTAVYYCAAGGQWRAAPVADAAQYDFWGQGTQVTVSS
VNA titer [1]: > 1000 nM | VNA titer [2]: > 1000 nM | VNA titer [3]: > 1000 nM | VNA titer [4]: > 1000 nM | VNA titer [5]: 52 nM | VNA titer [6]: > 1000 nM | VNA titer [7]: > 1000 nM

B2: SD1048 (VHH)
VHH: EVQLVESGGGVVQPGGSLRLSCVASGRTSSMYSIGWFRQAPGKEREFVAVIGWYSGRTFYTDSMKGRFTISRDNARNTVYLQMNSLKPEDTAVYYCAAANGPLRLSNQADYWGQGTQVTVSS
Kd [8]: 3 nM | Kd [9]: 3 nM | VNA titer [1]: > 1000 nM | VNA titer [2]: 19.5 nM | VNA titer [10]: > 1000 nM | VNA titer [5]: 20.6 nM | VNA titer [6]: > 1000 nM | VNA titer [7]: > 1000 nM | VNA titer [11]: > 1000 nM

B3: SD2086 (VHH)
VHH: EVQLVESGGGLVQAGGSLRLSCATSGQTFSSYAMGWFRQAPGKEREFVAAISWNGGSTYYADSVKGRFTISRESPENLVYLQMNSLKPEDTAVYYCAARGAYYTGSYYLGSTYDYWGQGTQVTVSS
VNA titer [12]: 273 nM | VNA titer [10]: 934 nM | VNA titer [13]: 964 nM | VNA titer [14]: 546 nM | VNA titer [11]: 815 nM

B4: MD2312 (bispecific antibody)
chain: EVQLVESGGGLVQAGDSLRLSCAASGPTFGMSAMGWFRQAPGKEREFVAAISGLGNPNYSDDVKGRFTISRENGRNTVYLQMNSLKPEDTAVYYCAQRKVYHVQGGDRPQAYDYWGQGTQVTVSSGGGGSGGGGSEVQLVESGGGLVQAGDSLRISCAASGRTLSIYSMGWFRQAPGKEREFVATIGWNSGRTFYPDSLKGRFTISRDNARNTLYLQMNNLRPEDTAVYYCAAAKGPLRLSSQADYWGQGTQVTVSSGGGGSGGGGSEVQLVESGGGLVQPGGSLRLSCAATGFTLENKAIGWFRQTPGSEREGVLCISKSGSWTYYTDSMRGRFTISRDNAENTVYLQMDSLKPEDTAVYYCATTTAGGGLCWDGTTFSRLASSWGQGTQVTVSS
average neutralization titer [15]: 21.6 nM | average neutralization titer [16]: 43.2 nM | average neutralization titer [17]: 7.7 nM | average neutralization titer [18]: 5.8 nM | average neutralization titer [19]: 18.1 nM | average neutralization titer [20]: < 1000 nM

TIFGIRVNTMG (Fc fusion) [FM1W3]
Average neutralization titers [21]: 16 nM | Average neutralization titers [22]: 16 nM | Average neutralization titers [23]: 6 nM | Average neutralization titers [24]: 10 nM | Average neutralization titers [25]: 8 nM
